Where two headings read alike, the source gives them in different places.

For assay [1], the target named is T1, human FcRn extracellular domain (ECD) fused to a transmembrane domain and an intracellular citrine, with … (human).
T1 construct: also called human FcRn overexpressed on CHO cells; FcRn transfected CHO cells
The assay can be described thus: flow cytometry, CHO cells transiently expressing human FcRn ECD-TM-citrine and B2M, pH 7.4, AF647 detection antibody. On the technique in general: A flow cytometer gives signals particle by particle.
Description: (§1) Binding of anti-FcRn VHH polypeptides to human FcRn at neutral (7.4) or endosomal (6) pH was tested by flow cytometry using a CHO-based overexpression system or isolated human peripheral blood mononuclear cells (PBMC).
(§2) CHO cells were plated in 96-well plates at 50,000 cells per well and resuspended in PBS, pH 7.4 or a buffer containing 20 mM His, 150 mM NaCl, pH 6. Serial dilutions of test articles were prepared at 2× the final concentration in the buffers described above (pH 7.4 or pH 6) and added to the cell suspensions. Plates were incubated for 60 minutes at 4° C. After the incubation cells were washed in the respective buffer and then incubated for 30 minutes at 4° C. with a fluorescently labeled (AF647) antibody detecting the VHH polypeptides. Binding of the detection antibody to FcRn on transfected cells (citrine positive) was measured after a final wash using an iQue Screener (Sartorius).

Assay [2] deals with T2, Human serum albumin (HSA) (human, UniProt P02768 25-609).
T2 construct: also called human albumin; recombinant human albumin
T2 sequence (P02768 25-609): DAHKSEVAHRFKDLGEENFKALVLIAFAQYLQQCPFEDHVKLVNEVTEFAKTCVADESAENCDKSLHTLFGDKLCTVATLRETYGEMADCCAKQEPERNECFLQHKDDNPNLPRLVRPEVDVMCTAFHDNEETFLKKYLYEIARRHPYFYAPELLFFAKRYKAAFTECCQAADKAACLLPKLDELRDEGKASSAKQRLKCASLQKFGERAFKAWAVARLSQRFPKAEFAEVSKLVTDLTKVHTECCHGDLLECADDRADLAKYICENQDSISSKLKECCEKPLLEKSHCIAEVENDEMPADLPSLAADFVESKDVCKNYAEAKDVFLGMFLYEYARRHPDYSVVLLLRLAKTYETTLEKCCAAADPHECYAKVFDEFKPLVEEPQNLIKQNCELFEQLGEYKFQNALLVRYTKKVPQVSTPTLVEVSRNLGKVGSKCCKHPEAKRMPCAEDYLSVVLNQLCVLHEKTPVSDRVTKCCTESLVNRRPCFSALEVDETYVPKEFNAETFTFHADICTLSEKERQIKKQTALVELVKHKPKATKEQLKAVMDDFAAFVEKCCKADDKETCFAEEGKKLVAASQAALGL
The assay can be described thus: ELISA on coated human albumin, pH 7.4, HRP detection antibody, A450.
Description: 96-well ELISA plates were coated with albumin protein in PBS overnight at 4° C., washed with PBS-T and then blocked with 5% milk powder in PBS-T for 1 h at room temperature. Serial dilutions of test articles were prepared in PBS pH 7.4 or a buffer containing 20 mM His, 150 mM NaCl, pH 5.5 and added to the plates. Plates were incubated for 1 h at room temperature. After the incubation cells were washed in the respective buffer and then incubated for 30 min at room temperature with a HRP-conjugated antibody detecting the polypeptides. Plates were washed in their respective buffers and TMB substrate was added and color allowed to develop. TMB substrate was stopped with an equal volume of stop solution (1M H₂SO₄). Absorbance at 450 nm was measured with a 96 well plate reader.

Assay [3] addresses T1, human FcRn extracellular domain (ECD) …. The assay can be described thus: flow cytometry, CHO cells transiently expressing human FcRn ECD-TM-citrine and B2M, pH 6, AF647 detection antibody.
Description: as §1, §2
Assay [4] deals with T3, Rat serum albumin (RSA) (rat, UniProt P02770 25-608).
T3 construct: Bought protein (Sigma); also called rat albumin
T3 sequence (P02770 25-608): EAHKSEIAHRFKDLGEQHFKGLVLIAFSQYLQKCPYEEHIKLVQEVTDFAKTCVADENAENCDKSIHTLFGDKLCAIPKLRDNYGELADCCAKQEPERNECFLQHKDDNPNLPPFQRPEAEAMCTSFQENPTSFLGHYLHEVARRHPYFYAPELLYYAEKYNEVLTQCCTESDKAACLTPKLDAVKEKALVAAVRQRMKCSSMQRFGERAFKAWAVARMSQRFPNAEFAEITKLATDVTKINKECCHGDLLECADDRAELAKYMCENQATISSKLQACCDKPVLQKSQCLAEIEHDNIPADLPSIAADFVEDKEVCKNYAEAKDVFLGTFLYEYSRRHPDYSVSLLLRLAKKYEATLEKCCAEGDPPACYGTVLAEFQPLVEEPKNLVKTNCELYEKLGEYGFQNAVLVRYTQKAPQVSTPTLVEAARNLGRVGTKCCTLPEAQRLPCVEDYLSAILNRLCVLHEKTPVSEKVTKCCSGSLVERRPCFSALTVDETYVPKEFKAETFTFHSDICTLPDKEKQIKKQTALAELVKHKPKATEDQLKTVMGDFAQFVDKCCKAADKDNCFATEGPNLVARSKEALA
Description: ELISA on coated rat albumin, anti-human Fc HRP, A650, one site-total binding fit.
Description: (§3) Medisorp plates were coated with albumin protein at 2 μg/ml, 50 μl/well at 4° C. overnight (human, murine, and rat albumin-Sigma, cynomolgus monkey albumin-Abcam). 1× Fish Gelatin (blocking agent, Bethyl Laboratories) was added to albumin-coated wells followed by a 1 hour incubation at RT. Titrations of sdAb fusion proteins (starting at 100 nM, across 1:3 or down 1:4) were added and incubated for 1 hour at RT. Plates were washed 3 times with 0.1% D-PBST, and then anti-human Fc HRP antibody (1:2000 in 0.1% D-PBST, Jackson) was added and incubated for 30 minutes at RT. Plates were washed 3 times with 0.1% D-PBST, and then TMB substrate was added. Absorbance at 650 nm was read on a plate reader (Molecular Devices) and data were plotted using equation one site-total binding (Model: Y=Bmax*X/(Kd+X)+NS*X+Background, GraphPad Prism).

Assay [5] concerns the target T2, Human serum albumin (HSA). Description: ELISA on coated human albumin, anti-human Fc HRP, A650, one site-total binding fit. In general terms: ELISA stands for enzyme-linked immunosorbent assay.
Description: as §3
Assay [6] deals with T4, Murine serum albumin (MSA) (mouse, UniProt P07724 25-608).
T4 construct: Bought protein (Sigma); also called murine albumin; mouse albumin
Description: ELISA on coated murine albumin, anti-human Fc HRP, A650, one site-total binding fit.
Description: as §3

The target of assay [7] is T5, Cynomolgus monkey serum albumin (CSA) (cynomolgus monkey, UniProt A2V9Z4 25-608).
T5 construct: Bought protein (Abcam); also called cynomolgus monkey albumin
T5 sequence (A2V9Z4 25-608): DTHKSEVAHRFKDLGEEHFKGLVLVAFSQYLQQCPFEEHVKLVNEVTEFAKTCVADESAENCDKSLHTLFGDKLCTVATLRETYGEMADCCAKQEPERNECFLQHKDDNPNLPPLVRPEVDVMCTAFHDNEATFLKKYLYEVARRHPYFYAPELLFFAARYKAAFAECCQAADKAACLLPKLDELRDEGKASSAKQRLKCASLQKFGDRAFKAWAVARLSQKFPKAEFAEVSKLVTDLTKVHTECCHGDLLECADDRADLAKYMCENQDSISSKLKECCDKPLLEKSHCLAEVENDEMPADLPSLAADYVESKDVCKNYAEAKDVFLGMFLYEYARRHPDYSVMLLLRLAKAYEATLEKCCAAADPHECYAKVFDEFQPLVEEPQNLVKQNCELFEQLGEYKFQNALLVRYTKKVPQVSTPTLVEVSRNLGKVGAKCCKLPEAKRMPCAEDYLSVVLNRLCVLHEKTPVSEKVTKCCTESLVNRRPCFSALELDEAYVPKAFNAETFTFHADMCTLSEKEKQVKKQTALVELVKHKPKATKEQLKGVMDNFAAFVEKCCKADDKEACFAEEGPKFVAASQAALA
Description: ELISA on coated cynomolgus monkey albumin, anti-human Fc HRP, A650, one site-total binding fit.
Description: as §3

In assay [8] the target is T5, Cynomolgus monkey serum albumin (CSA). Described as above. This is another data set of the same source.
Description: as §3
Assay [9] has as its target T3, Rat serum albumin (RSA). The assay can be described thus: ELISA on coated rat albumin, anti-human Fc HRP, A650, one site-total binding fit. This is another data set of the same source.
Description: as §3
Assay [10] has as its target T2, Human serum albumin (HSA). The assay can be described thus: ELISA on coated human albumin, anti-human Fc HRP, A650, one site-total binding fit. This is another data set of the same source.
Description: as §3
Assay [11] concerns the target T4, Murine serum albumin (MSA). Description: ELISA on coated murine albumin, anti-human Fc HRP, A650, one site-total binding fit. The source holds these as a separate data set.
Description: as §3

T1 sequence (chain, as listed by the source limits assumed, chain 1 of 2): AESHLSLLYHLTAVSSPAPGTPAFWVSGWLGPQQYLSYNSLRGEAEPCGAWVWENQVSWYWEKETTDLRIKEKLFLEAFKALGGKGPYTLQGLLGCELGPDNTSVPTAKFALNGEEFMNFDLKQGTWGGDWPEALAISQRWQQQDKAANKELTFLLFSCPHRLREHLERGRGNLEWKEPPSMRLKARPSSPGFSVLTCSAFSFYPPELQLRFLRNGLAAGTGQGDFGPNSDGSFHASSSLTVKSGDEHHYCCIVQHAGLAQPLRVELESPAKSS
T1 sequence (b2m, as listed by the source limits assumed, chain 2 of 2): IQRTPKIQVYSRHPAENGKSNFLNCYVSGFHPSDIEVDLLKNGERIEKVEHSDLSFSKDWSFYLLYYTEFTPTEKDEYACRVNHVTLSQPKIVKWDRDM

B1: cx12003 (bispecific antibody)
single polypeptide, format of FIG. 5(i): QVQLLESGGGEVQPGGSLRLSCAASGSIANVDLMAWHRQAPGKQREPIAVINDAGSTYYAESVKGRFTISRDNAKNTLYLQMNSLRAEDTAVYYCNTATWRGGERYADWGQGTLVTVEPGSGGGSQVQLLESGGGEVQPGGSLRLSCAASGFTFSTSGMVWVRQAPGKGLEWVSTISDDARITVYAESVKGRFTISRDNAKNTVYLQMNSLRAEDTAVYYCATYRAGSRIGSYEDYYRGQGTLVTVEPGG
notes: anti-FcRn VHH linked to anti-albumin VHH
The term EC50 (read off the curve) denotes the concentration giving half of the maximal effect. Turning to B1, the “EC50 (read off the curve)” value in assay [1] is ~0.3 nM; in assay [2] it was ~0.4 nM; in [3], ~0.5 nM.

B2: 4A01v3 (Fc fusion)
VHH: EVQLVESGGGEVQPGGSLRLSCAASGFAFSTSGMVWVRQAPGKGLEWVSTISDDARIIRYAESVKGRFTISRDNAKNTLYLQMNSLRAEDTAVYYCATYRAGSRIGSYEDYYRGQGTLVTVKP
notes: also called Hz4A01v3; not shown: Human Fc carrier and its linker
Usually Kd stands for the equilibrium constant for the complex coming apart. For the molecule B2, the Kd with Rat serum albumin (RSA) [4] came to 0.162 nM; in assay [5] it was 0.124 nM; in assay [6], 0.121 nM; in assay [7] it was 0.338 nM. For the same molecule, in assay [7], the Bmax worked out at 0.994 A650.

B3: 4A01v3-5 (Fc fusion)
VHH: EVQLVESGGGEVQPGGSLRLSCAASGFAFSTSGMVWYRQAPGKGLEWVSTISDDARIIRYAESVKGRFTISRDNAKNTLYLQMNSLRAEDTAVYYCATYRAGSRIGSYEDYYRGQGTLVTVKP
notes: also called Hz4A01v3-5; not shown: Human Fc carrier and its linker
Consider B3, for which the Bmax in assay [8] was determined as 1.34 A650; with Rat serum albumin (RSA) [4], 1.35 A650; in assay [5], 1.39 A650; in [6] it was 1.31 A650. Moreover, the dissociation constant Kd in [8] amounted to 0.126 nM; with Rat serum albumin (RSA) [4] it was 0.162 nM; in assay [5], 0.121 nM; in [6], 0.112 nM.

B4: 4A01v3-1 (Fc fusion, not shown: a dimerising Fc or GST; small tags and cut ends)
VHH: EVQLVESGGGEVQPGGSLRLSCAASGFTFSTSGMVWVRQAPGKGLEWVSTISDDARIIRYAESVKGRFTISRDNAKNTLYLQMNSLRAEDTAVYYCATYRAGSRIGSYEDYYRGQGTLVTVKP
notes: also called Hz4A01v3-1
Turning to B4, the Bmax in assay [8] came to 1.29 A650; with Rat serum albumin (RSA) [4], 1.28 A650; in assay [5], 1.32 A650; in assay [6] it was 1.29 A650. Also, the Kd in [8] worked out at 0.127 nM; with Rat serum albumin (RSA) [4], 0.13 nM; in assay [5], 0.123 nM; in [6], 0.109 nM.

B5: 4A01v3-4 (Fc fusion)
VHH: EVQLVESGGGEVQPGGSLRLSCAASGFAFSTSGMSWVRQAPGKGLEWVSTISDDARIIRYAESVKGRFTISRDNAKNTLYLQMNSLRAEDTAVYYCATYRAGSRIGSYEDYYRGQGTLVTVKP
notes: also called Hz4A01v3-4; not shown: Human Fc carrier and its linker
For the molecule B5, the Bmax in [8] stood at 1.37 A650; with Rat serum albumin (RSA) [4] it was 1.41 A650; in assay [5], 1.43 A650; in assay [6], 1.4 A650. Moreover, the dissociation constant Kd in assay [8] worked out at 0.181 nM; with Rat serum albumin (RSA) [4], 0.252 nM; in assay [5] it was 0.151 nM; in assay [6] it was 0.241 nM.

B6: 4A01v9 (Fc fusion, not shown: a dimerising Fc or GST; small tags and cut ends)
VHH: EVQLVESGGGEVQPGGSLRLSCAASGFAFSTSGMVWVRQAPGKGLEWVSTISDDTRIIRYAESVKGRFTISRDNAKNTLYLQMNSLRAEDTAVYYCATYRAGSRIGSYEDYYRGQGTLVTVKP
notes: also called Hz4A01v9
For the molecule B6, the Bmax in [8] is 1.29 A650; with Rat serum albumin (RSA) [4], 1.27 A650; in assay [5] it was 1.35 A650; in [6], 1.3 A650. For the same molecule, the Kd in assay [8] stood at 0.117 nM; with Rat serum albumin (RSA) [4] it was 0.144 nM; in assay [5] it was 0.115 nM; in assay [6] it was 0.112 nM.

B7: 4A01v3-8 (Fc fusion)
VHH: EVQLVESGGGEVQPGGSLRLSCAASGFAFSTSGMVWVRQAPGKGLEWVSTISDDARIIRYAESVKGRFTISRDNAKNTLYLQMNSLRAEDTAVYYCATYRAGSRIGSYEDYYWGQGTLVTVKP
notes: also called Hz4A01v3-8; not shown: Human Fc carrier and its linker
B7 returned a Bmax in assay [8] of 1.35 A650. For the same molecule, the Kd in assay [8] was determined as 0.147 nM; with Rat serum albumin (RSA) [4] it was 0.169 nM; in [5] it was 0.136 nM; in assay [6], 0.143 nM.

B8: 4A01v5 (Fc fusion, not shown: a dimerising Fc or GST; small tags and cut ends)
VHH: EVQLVESGGGEVQPGGSLRLSCAASGFAFSTSGMVWVRQAPGKGLEWVSTISDEGRIIRYAESVKGRFTISRDNAKNTLYLQMNSLRAEDTAVYYCATYRAGSRIGSYEDYYRGQGTLVTVKP
notes: also called Hz4A01v5
For B8, the Bmax in the assay with Rat serum albumin (RSA) [9] came to 1 A650; in [10], 0.957 A650; in assay [11] it was 1.09 A650; in assay [7], 0.939 A650. Besides, the Kd in the assay with Rat serum albumin (RSA) [9] came to 0.26 nM; in [10] it was 0.276 nM; in assay [11] it was 0.189 nM; in assay [7], 0.203 nM.

B9: 4A01v4 (Fc fusion, not shown: a dimerising Fc or GST; small tags and cut ends)
VHH: EVQLVESGGGEVQPGGSLRLSCAASGFAFSTSGMVWVRQAPGKGLEWVSTISDESRIIRYAESVKGRFTISRDNAKNTLYLQMNSLRAEDTAVYYCATYRAGSRIGSYEDYYRGQGTLVTVKP
notes: also called Hz4A01v4
With B9, the Bmax with Rat serum albumin (RSA) [9] came to 0.972 A650; in assay [10] it was 0.947 A650; in [11], 1.1 A650; in assay [7], 0.954 A650. For the same molecule, the Kd worked out at 0.32 nM with Rat serum albumin (RSA) [9], 0.378 nM in [10], 0.25 nM in [11] and 0.247 nM in assay [7].

B10: 4A01v8 (Fc fusion, not shown: a dimerising Fc or GST; small tags and cut ends)
VHH: EVQLVESGGGEVQPGGSLRLSCAASGFAFSTSGMVWVRQAPGKGLEWVSTISDNARIIRYAESVKGRFTISRDNAKNTLYLQMNSLRAEDTAVYYCATYRAGSRIGSYEDYYRGQGTLVTVKP
notes: also called Hz4A01v8
Turning to B10, the Bmax with Rat serum albumin (RSA) [9] came out at 1.01 A650; in [10] it was 0.955 A650; in assay [11], 1.1 A650. Also, the Kd was 0.328 nM in the assay with Rat serum albumin (RSA) [9], 0.428 nM in [10] and 0.226 nM in [11].

B11: 4A01v3-7 (Fc fusion)
VHH: EVQLVESGGGEVQPGGSLRLSCAASGFAFSTSGMVWVRQAPGKGLEWVSTISDDARIIRYAESVKGRFTISRDNAKNTVYLQMNSLRAEDTAVYYCATYRAGSRIGSYEDYYRGQGTLVTVKP
notes: also called Hz4A01v3-7; not shown: Human Fc carrier and its linker
On to B11, for which the Bmax in [8] was 1.31 A650; with Rat serum albumin (RSA) [4] it was 1.35 A650; in assay [5] it was 1.4 A650; in assay [6], 1.32 A650. The Kd in assay [8] was 0.118 nM; in the assay with Rat serum albumin (RSA) [4], 0.123 nM; in assay [5], 0.121 nM; in assay [6] it was 0.111 nM.

B12: 4A01v6 (Fc fusion, not shown: a dimerising Fc or GST; small tags and cut ends)
VHH: EVQLVESGGGEVQPGGSLRLSCAASGFAFSTSGMVWVRQAPGKGLEWVSTISDSGRIIRYAESVKGRFTISRDNAKNTLYLQMNSLRAEDTAVYYCATYRAGSRIGSYEDYYRGQGTLVTVKP
notes: also called Hz4A01v6
Regarding B12, the Bmax in the assay with Rat serum albumin (RSA) [9] amounted to 1.02 A650; in [10], 0.94 A650; in [11], 1.09 A650; in assay [7] it was 0.961 A650. Besides, the equilibrium dissociation constant (Kd) in the assay with Rat serum albumin (RSA) [9] amounted to 0.273 nM; in assay [10], 0.332 nM; in assay [11] it was 0.206 nM; in assay [7] it was 0.225 nM.

B13: 4A01v3-3 (Fc fusion, not shown: a dimerising Fc or GST; small tags and cut ends)
VHH: EVQLVESGGGEVQPGGSLRLSCAASGFAFSTSGMAWVRQAPGKGLEWVSTISDDARIIRYAESVKGRFTISRDNAKNTLYLQMNSLRAEDTAVYYCATYRAGSRIGSYEDYYRGQGTLVTVKP
notes: also called Hz4A01v3-3
Take B13: the Bmax came to 1.35 A650 in assay [8], 1.32 A650 in the assay with Rat serum albumin (RSA) [4], 1.36 A650 in [5] and 1.35 A650 in assay [6]. In addition, the Kd came out at 0.142 nM in assay [8], 0.152 nM with Rat serum albumin (RSA) [4], 0.129 nM in assay [5] and 0.142 nM in assay [6].

B14: 4A01v1 (Fc fusion)
VHH: EVQLVESGGGEVQPGGSLRLSCAASGFAFSTSGMVWVRQAPGKGLEWVSTISDDSRIIRYAESVKGRFTISRDNAKNTLYLQMNSLRAEDTAVYYCATYRAGSRIGSYEDYYRGQGTLVTVKP
notes: also called Hz4A01v1; not shown: Human Fc carrier and its linker
B14: the Bmax in [8] turned out to be 1.31 A650; with Rat serum albumin (RSA) [4], 1.28 A650; in assay [5] it was 1.34 A650; in assay [6] it was 1.35 A650. Further, the Kd in [8] was 0.157 nM; with Rat serum albumin (RSA) [4], 0.184 nM; in assay [5], 0.139 nM; in assay [6], 0.129 nM.
